# In the supplement of paper PMC12042874:
# ± gives the uncertainty stated by the source.
# Assay: amyloid nucleation score (Sup35N fusion, yeast selection) (log enrichment); library NNK3; higher = more nucleation; inactive = no reads after selection
# Method in brief: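 Growth for 7 days at 30°C on medium lacking adenine and uracil followed a 24-hour induction with 100 μM copper sulfate of psi-negative yeast expressing peptides of 20 random codons fused to Sup35N. Input and output plasmid inserts were sequenced with Illumina, and sequences with under 100 input reads were excluded. Nucleation score is the DiMSum log enrichment of output over input reads, centred on the mode score of non-aggregating sequences.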
row,Substance,amyloid nucleation score
1,APGCGTNLGMIFALGWALWR,inactive
2,SVSYFWFARL,-0.005 ± 0.98
3,EVKAMTWLVIVETIVFMS,inactive
4,DREST,inactive
5,NFRPEKHINLMVCKSLPFV,0.705 ± 0.21
6,DFISERHYHRPAGPA,inactive
7,YRFYLVSVVFKTDEVARKSE,inactive
8,SKGTLKHLN,0.921 ± 0.12
9,RKIHVAMVLRIEYSMYGSPA,inactive
10,RNSMGVILKVCLGRN,1.66 ± 0.091
11,VLSMRHSNTGMARCTDW,inactive
12,SVNSVHLMRSSEVGTHEGVG,inactive
13,NKHDHLFRKFFLCISLGLAG,inactive
14,LFTYVPDFSGLTLSTICCLV,0.458 ± 0.35
15,PLPDRGSFFTVSNLNEWSAV,inactive
16,ADSMTTGLVHGWCYFCMWFN,2.16 ± 0.065
17,LFSQCSLITHG,inactive
18,DKRNSLGCGLNYGFKADDGW,inactive
19,HTFYFYSMSSGFKRHETTSG,inactive
20,ILRFFVCLSHKNVDFICSAR,inactive
21,EFGVVVNEFYGDVY,inactive
22,LSEVRLRRQLLVGACDGGYN,inactive
23,LYRCDDGCSIRTVRDYWWVS,inactive
24,RLVRIW,inactive
25,STYLMSFVLYWLWQRSLDTC,inactive
26,LYNVMGLALASLAISNLRDK,inactive
27,SWWKDLVYD,inactive

row,Substance,amyloid nucleation score
1,PILELGGRSFTTWRC,inactive
2,YQRGVRFRSHWMRSGKWDHF,inactive
3,YVWLGDLMSVRCYYWVTW,inactive
4,LHRCSLSKNDSAQSMMLTGC,inactive
5,FFSSGVVRQAYVLVAEDNVS,inactive
6,QVLFAYIYLSLVNVSQG,1.03 ± 0.14
7,NSSTDFS,inactive
8,MPYSFIMTVTYSLQYTQWSL,-0.074 ± 0.51
9,YDLGVAVLNRNSKRSC,inactive
10,SPVVIRFTLLIKCRWLVVWI,inactive
11,TFQRFQLGHIRFRQVFSWIC,-0.627 ± 1.4
12,VYKWRAYIEHSNFWAIKPVC,inactive
13,SLGNYHTLGMVFRLA,-0.093 ± 0.48
14,TFLCSENQAAMWGIRTGSLL,inactive
15,CMHGRGMWMNIACAFSCRQF,0.063 ± 0.69
16,YVLCFVVELWIGFSDDWISW,inactive
17,FERDMVQ,inactive
18,HHHRLARTPHDIVPRQKLVV,inactive
19,AILEVLT,0.671 ± 0.17
20,FRLYFYYYSNLFRHFCYNKS,inactive
21,EVLNCSR,inactive
22,KLCGHIIYCVV,inactive
23,FSSLGANYNHEILKGCGVGS,inactive
24,VLIMRCLKWFASMLCFSIPK,inactive
25,LIWIVVGLSCYSTRL,1.09 ± 0.13
26,DSCVPIYVDTYGGDLDVNGG,inactive
27,FVSLLWLRGDVVHALFIQWM,inactive

row,Substance,amyloid nucleation score
1,KVRSVDCRNTSNKDHW,inactive
2,LKSDI,inactive
3,VWCRQITMMACMSVR,inactive
4,AFTGTDSKF,inactive
5,CKIGYPTYNVGVIVSLVVRM,1.61 ± 0.066
6,SQRELYH,inactive
7,NATSQLVVGAVQ,inactive
8,RMNMCMWLAWDSPWYIMGY,inactive
9,RRLSSHLFMLWYMVR,inactive
10,KPCSLIRWPIKASMFSYVHS,inactive
11,FYSFFILSIGSSIPCLRSHM,inactive
12,CDSYKVYRVLNKQGWFCRGS,inactive
13,KFVVDARFVTS,1.33 ± 0.13
14,NGSHDRGVPAELSAFKG,inactive
15,SHAEVCQLSTSGPL,inactive
16,VRRLFVARCRYCQLMYFRGE,inactive
17,TRWHDGKRVSWKSTPNMLSV,inactive
18,INSDSSQFSYSSLGKVIGMY,inactive
19,SWCVDTSIQFPKAFNIVCGF,inactive
20,VAFGWDLFFNVLNLHCNVSN,1.89 ± 0.069
21,NICLKNSVS,inactive
22,ISSRGSMTRL,inactive
23,LYMVSYG,inactive
24,IMLKGS,inactive
25,RKNSDLTYSNSVNLTCACRT,0.434 ± 0.18
26,QGLSCDFRVLLLIYRSCGRG,inactive
